Among the data in patent publication US20050053913A1 are growth on medium lacking histidine with 3AT (GAL1:HIS3 reporter) values, retold here.

This assay deals with AD-E2F1 (GAL4-AD fused to AA 159-437 of E2F1) (yeast; human) (UniProt P04386). As to the kind of experiment: cell-based or functional assay.

In turn, “DB-DP1 (GAL4-DB fused to DP1) (from UniProt P04386 1-147; Q14186 1-410)” gave a growth on medium lacking histidine with 3AT (GAL1:HIS3 reporter) of less than 100 mM 3AT.
